Patent publication US20210403527A1 (published 2021)

T1: NY-ESO-1 peptide on HLA-A*02:01 (human)
T1 peptide: SLLMWITQC


Target: T1, NY-ESO-1 peptide on HLA-A*02:01
Experiment: multimer staining

binding result | Binder
recognises | TCR063 (TCR, V domains shown) Valpha: QKEVEQNSGPLSVPEGAIASLNCTYSDRGSQSFFWYRQYSGKSPELIMSIYSNGDKEDGRFTAQLNKASQYVSLLIRDSQPSDSATYLCAVNILASGGSYIPTFGRGTSLIVHP Vbeta: ETGVTQTPRHLVMGMTNKKSLKCEQHLGHNAMYWYKQSAKKPLELMFVYNFKEQTENNSVPSRFSPECPNSSHLFLHLHTLQPEDSALYLCASSHGTGYNYGYTFGSGTRLTVV
recognises | TCR001 (TCR, V domains shown) Valpha: DAKTTQPNSMESNEEEPVHLPCNHSTISGTDYIHWYRQLPSQGPEYVIHGLTSNVNNRMASLAIAEDRKSSTLILHRATLRDAAVYYCILRPDSWGKFQFGAGTQVVVTP Vbeta: NAGVTQTPKFRILKIGQSMTLQCAQDMNHNYMYWYRQDPGMGLKLIYYSVGAGITDKGEVPNGYNVSRSTTEYFPLRLELAAPSQTSVYFCASSYSGGSPLHFGNGTRLTVT
recognises | TCR050 (TCR, V domains shown) Valpha: DAKTTQPNSMESNEEEPVHLPCNHSTISGTDYIHWYRQLPSQGPEYVIHGLTSNVNNRMASLAIAEDRKSSTLILHRATLRDAAVYYCILREGNNDMRFGAGTRLTVKP Vbeta: NAGVTQTPKFRILKIGQSMTLQCAQDMNHNYMYWYRQDPGMGLKLIYYSVGAGITDKGEVPNGYNVSRSTTEYFPLRLELAAPSQTSVYFCASSWTDNQPQHFGDGTRLSIL
recognises | TCR167 (TCR, V domains shown) Valpha: DAKTTQPNSMESNEEEPVHLPCNHSTISGTDYIHWYRQLPSQGPEYVIHGLTSNVNNRMASLAIAEDRKSSTLILHRATLRDAAVYYCILRPDSWGKFQFGAGTQVVVTP Vbeta: GAVVSQHPSWVICKSGTCVKIECRSLDFQATTMFWYRQFPKQSLMLMATSNEGSKATYEQGVEKDKFLINHASLTLSTLTVAGAHPEDSSFYICSAMTVMNTEAFFGQGTRLTVV
recognises | TCR184 (TCR, V domains shown) Valpha: DQQVKQNSPSLSVQEGRISILNCDYTNSMFDYFLWYKKYPAEGPTFLISISSIKDKNEDGRFTVFLNKSAKHLSLHIVPSQPGDSAVYFCAARKNYGGSQGNLIFGKGTKLSVKP Vbeta: DAGVTQSPTHLIKTRGQQVTLRCSPISGHKSVSWYQQVLGQGPQFIFQYYEKEERGRGNFPDRFSARQFPNYSSELNVNALLLGDSALYLCASSLGSYDYTFGSGTRLTVV
recognises | TCR018 (TCR, V domains shown) Valpha: AQTVTQSQPEMSVQEAETVTLSCTYDTSESDYYLFWYKQPPSRQMILVIRQEAYKQQNATENRFSVNFQKAAKSFSLKISDSQLGDAAMYFCAYRSANSGYALNFGKGTSLLVTP Vbeta: ETGVTQTPRHLVMGMTNKKSLKCEQHLGHNAMYWYKQSAKKPLELMFVYNFKEQTENNSVPSRFSPECPNSSHLFLHLHTLQPEDSALYLCASSQAHYTEAFFGQGTRLTVV
recognises | TCR108 (TCR, V domains shown) Valpha: GENVEQHPSTLSVQEGDSAVIKCTYSDSASNYFPWYKQELGKRPQLIIDIRSNVGEKKDQRIAVTLNKTAKHFSLHITETQPEDSAVYFCAASMKDSSYKLIFGSGTRLLVRP Vbeta: ETGVTQTPRHLVMGMTNKKSLKCEQHLGHNAMYWYKQSAKKPLELMFVYNFKEQTENNSVPSRFSPECPNSSHLFLHLHTLQPEDSALYLCASSQGPGYTFGSGTRLTVV
recognises | TCR317 (TCR, V domains shown) Valpha: QKEVEQNSGPLSVPEGAIASLNCTYSDRGSQSFFWYRQYSGKSPELIMSIYSNGDKEDGRFTAQLNKASQYVSLLIRDSQPSDSATYLCAVNSSPYKLSFGAGTTVTVRA Vbeta: ETGVTQTPRHLVMGMTNKKSLKCEQHLGHNAMYWYKQSAKKPLELMFVYNFKEQTENNSVPSRFSPECPNSSHLFLHLHTLQPEDSALYLCASSQGPGYTFGSGTRLTVV
recognises | TCR188 (TCR, V domains shown) Valpha: DAKTTQPNSMESNEEEPVHLPCNHSTISGTDYIHWYRQLPSQGPEYVIHGLTSNVNNRMASLAIAEDRKSSTLILHRATLRDAAVYYCILNTGTASKLTFGTGTRLQVTL Vbeta: GAVVSQHPSWVICKSGTSVKIECRSLDFQATTMFWYRQFPKQSLMLMATSNEGSKATYEQGVEKDKFLINHASLTLSTLTVTSAHPEDSSFYICSAKEGTEAFFGQGTRLTVV
recognises | TCR090 (TCR, V domains shown) Valpha: GENVEQHPSTLSVQEGDSSVIKCTYSDSASNYFPWYKQELGKRPQLIIDIRSNVGEKKDQRIAVTLNKTAKHFSLHITETQPEDSAVYFCAATGYGQNFVFGPGTRLSVLP Vbeta: EAQVTQNPRYLITVTGKKLTVTCSQNMNHEYMSWYRQDPGLGLRQIYYSMNVEVTDKGDVPEGYKVSRKEKRNFPLILESPSPNQTSLYFCASSLRGPYGYTFGSGTRLTVV
